Our source for the binding result and IC50 values is US20120077731A1 (Ablynx, published 2012).

In assay [1] the target is T1, CLF-1/CLC (UniProt O75462 38-422; Q9UBD9 28-225, limits assumed).
T1 sequence (looked up) 1: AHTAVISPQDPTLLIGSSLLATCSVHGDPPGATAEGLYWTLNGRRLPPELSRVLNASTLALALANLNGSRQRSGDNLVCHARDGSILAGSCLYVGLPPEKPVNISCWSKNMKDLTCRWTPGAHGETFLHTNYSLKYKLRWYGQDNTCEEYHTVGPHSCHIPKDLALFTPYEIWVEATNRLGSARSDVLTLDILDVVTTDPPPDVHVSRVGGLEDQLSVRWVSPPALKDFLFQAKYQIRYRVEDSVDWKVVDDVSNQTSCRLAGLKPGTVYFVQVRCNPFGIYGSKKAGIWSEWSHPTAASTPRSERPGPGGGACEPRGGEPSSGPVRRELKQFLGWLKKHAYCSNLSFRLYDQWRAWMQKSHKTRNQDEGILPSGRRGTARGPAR
T1 sequence (looked up) 2: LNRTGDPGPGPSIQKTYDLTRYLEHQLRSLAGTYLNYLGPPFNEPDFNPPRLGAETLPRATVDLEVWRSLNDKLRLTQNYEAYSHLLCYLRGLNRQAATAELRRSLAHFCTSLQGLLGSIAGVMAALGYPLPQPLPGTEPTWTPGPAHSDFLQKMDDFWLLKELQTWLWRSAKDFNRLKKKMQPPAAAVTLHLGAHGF
The experiment in a line: competitive binding ELISA, similar setup (results not shown). In general terms: In an ELISA, binding on a coated surface is turned into a signal by an enzyme label.

Assay [2] deals with T2, IL12-p40 (UniProt P29460 23-328).
T2 sequence (looked up): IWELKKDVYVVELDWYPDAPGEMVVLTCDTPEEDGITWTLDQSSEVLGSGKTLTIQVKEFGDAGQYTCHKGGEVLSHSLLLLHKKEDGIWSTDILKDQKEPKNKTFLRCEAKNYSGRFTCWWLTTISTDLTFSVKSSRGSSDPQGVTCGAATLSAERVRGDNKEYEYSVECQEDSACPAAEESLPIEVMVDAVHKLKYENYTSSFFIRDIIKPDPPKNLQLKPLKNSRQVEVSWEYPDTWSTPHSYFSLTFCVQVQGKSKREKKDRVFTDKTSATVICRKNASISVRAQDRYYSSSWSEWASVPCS
The description is as above.

For assay [3], the target named is T3, gp130/Fc (UniProt P40189 23-619).
T3 construct: not shown: Fc part, not described
T3 sequence (looked up): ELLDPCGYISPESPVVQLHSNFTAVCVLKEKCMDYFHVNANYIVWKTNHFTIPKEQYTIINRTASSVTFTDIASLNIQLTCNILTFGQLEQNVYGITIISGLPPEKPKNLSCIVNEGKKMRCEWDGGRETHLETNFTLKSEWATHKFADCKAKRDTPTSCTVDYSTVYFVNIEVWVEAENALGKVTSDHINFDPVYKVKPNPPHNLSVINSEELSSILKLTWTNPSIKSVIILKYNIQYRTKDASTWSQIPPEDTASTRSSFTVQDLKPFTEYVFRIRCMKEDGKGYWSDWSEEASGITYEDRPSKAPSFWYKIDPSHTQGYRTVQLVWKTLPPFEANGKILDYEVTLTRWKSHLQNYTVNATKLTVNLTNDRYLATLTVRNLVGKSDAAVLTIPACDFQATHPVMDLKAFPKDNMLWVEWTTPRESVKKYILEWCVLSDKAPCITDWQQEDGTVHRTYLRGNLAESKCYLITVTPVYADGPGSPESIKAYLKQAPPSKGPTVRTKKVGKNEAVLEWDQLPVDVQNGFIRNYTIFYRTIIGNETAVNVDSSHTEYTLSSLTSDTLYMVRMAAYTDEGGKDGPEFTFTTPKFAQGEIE
Described as above.

Assay [4] concerns the target T4, CNTF-R (UniProt P26992 23-346, limits assumed).
T4 sequence (looked up): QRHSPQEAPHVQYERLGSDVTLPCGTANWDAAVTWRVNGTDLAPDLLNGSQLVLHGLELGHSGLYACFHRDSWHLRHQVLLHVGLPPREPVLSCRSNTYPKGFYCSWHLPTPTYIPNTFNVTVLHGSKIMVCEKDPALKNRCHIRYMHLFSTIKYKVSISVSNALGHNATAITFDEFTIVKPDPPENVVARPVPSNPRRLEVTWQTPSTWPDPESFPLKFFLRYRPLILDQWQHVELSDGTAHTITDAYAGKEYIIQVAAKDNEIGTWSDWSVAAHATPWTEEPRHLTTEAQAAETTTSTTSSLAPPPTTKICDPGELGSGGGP
In words: competitive binding ELISA: IL6R20A11 (0.05 nM) pre-incubated with a series of the receptor; free IL6R20A11 captured on sIL-6R and detected via anti-His.

In assay [5] the target is T5, IL-11R/Fc (UniProt Q14626 23-370).
T5 construct: not shown: Fc part, not described
T5 sequence (looked up): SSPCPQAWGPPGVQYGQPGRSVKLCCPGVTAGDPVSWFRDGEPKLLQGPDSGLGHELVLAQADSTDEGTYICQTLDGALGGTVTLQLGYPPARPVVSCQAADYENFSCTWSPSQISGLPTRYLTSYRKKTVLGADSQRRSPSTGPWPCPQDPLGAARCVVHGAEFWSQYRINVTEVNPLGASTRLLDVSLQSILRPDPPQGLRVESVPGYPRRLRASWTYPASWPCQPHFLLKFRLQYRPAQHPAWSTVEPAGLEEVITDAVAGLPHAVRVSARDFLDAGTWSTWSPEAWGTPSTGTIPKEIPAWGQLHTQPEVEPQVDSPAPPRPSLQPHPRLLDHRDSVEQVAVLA
The assay is described as above.

The target in assay [6] is T6, Human plasma sIL-6R (human, UniProt P08887 20-355, limits assumed).
T6 construct: also called plasma-derived human IL-6R
T6 sequence (looked up): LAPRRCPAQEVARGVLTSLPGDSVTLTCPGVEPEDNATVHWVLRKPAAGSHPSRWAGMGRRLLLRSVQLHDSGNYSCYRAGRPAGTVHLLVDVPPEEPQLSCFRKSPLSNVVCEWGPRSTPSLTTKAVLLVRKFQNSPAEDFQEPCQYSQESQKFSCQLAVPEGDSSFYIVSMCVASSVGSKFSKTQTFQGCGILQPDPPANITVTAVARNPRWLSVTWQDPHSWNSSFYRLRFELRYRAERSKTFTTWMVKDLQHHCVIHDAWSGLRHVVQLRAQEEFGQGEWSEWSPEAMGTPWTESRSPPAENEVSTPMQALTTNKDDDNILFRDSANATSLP
In words: plasma potency ELISA, human plasma, normal IL-6 (EC50).

B1: PMP20A11 (VHH)
VHH: EVQLVESGGGLVQPGGSLRLSCAASGSVFKINVMAWYRQAPGKGRELVAGIISGGSTSYADSVKGRFTISRDNAKNTLYLQMNSLRPEDTAVYYCAFITTESDYDLGRRYWGQGTLVTVSS
notes: also called IL6R20A11; IL6R300; not shown: c-myc and (His)6 tags
Turning to B1, the binding result in assay [1] is listed as “no binding (tested: 100 nM)”; in assay [2], “no binding (tested: 100 nM)”; in assay [3], “no binding (tested: 100 nM)”; in assay [4] it was “no binding (tested: 5 nM (log conc 0.7))”; in assay [5], “no binding (tested: 5 nM (log conc 0.7))”. For the same molecule, it took 0.198 nM to reach half-maximal inhibition in assay [6] (IC50).

In general, IC50 refers to the midpoint of a concentration-inhibition curve. A high value points to weaker potency in that assay.
